Experimental data taken from paper PMC11264237 (Archives of biochemistry and biophysics, 2024).
One block for each binder: values may come before it.

Target: T1, GST fused to the ATP8A1 tail (amino acids 1049-1163) (human, UniProt Q9Y2Q0 1049-1163)
T1 sequence (looked up): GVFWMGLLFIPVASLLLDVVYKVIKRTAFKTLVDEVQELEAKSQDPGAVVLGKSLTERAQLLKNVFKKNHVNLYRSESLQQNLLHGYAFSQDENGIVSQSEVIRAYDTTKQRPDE
Experiment: pull-down

% of total input bound to the beads: 24 % of total input
B1: BIG1 (natural protein, human (endogenous in HeLa), UniProt Q9Y6D6 1-1849, looked up)
chain: MYEGKKTKNMFLTRALEKILADKEVKKAHHSQLRKACEVALEEIKAETEKQSPPHGEAKAGSSTLPPVKSKTNFIEADKYFLPFELACQSKCPRIVSTSLDCLQKLIAYGHLTGNAPDSTTPGKKLIDRIIETICGCFQGPQTDEGVQLQIIKALLTAVTSQHIEIHEGTVLQAVRTCYNIYLASKNLINQTTAKATLTQMLNVIFARMENQALQEAKQMEKERHRQHHHLLQSPVSHHEPESPQLRYLPPQTVDHISQEHEGDLDLHTNDVDKSLQDDTEPENGSDISSAENEQTEADQATAAETLSKNEVLYDGENHDCEEKPQDIVQNIVEEMVNIVVGDMGEGTTINASADGNIGTIEDGSDSENIQANGIPGTPISVAYTPSLPDDRLSVSSNDTQESGNSSGPSPGAKFSHILQKDAFLVFRSLCKLSMKPLSDGPPDPKSHELRSKILSLQLLLSILQNAGPIFRTNEMFINAIKQYLCVALSKNGVSSVPEVFELSLSIFLTLLSNFKTHLKMQIEVFFKEIFLYILETSTSSFDHKWMVIQTLTRICADAQSVVDIYVNYDCDLNAANIFERLVNDLSKIAQGRGSQELGMSNVQELSLRKKGLECLVSILKCMVEWSKDQYVNPNSQTTLGQEKPSEQEMSEIKHPETINRYGSLNSLESTSSSGIGSYSTQMSGTDNPEQFEVLKQQKEIIEQGIDLFNKKPKRGIQYLQEQGMLGTTPEDIAQFLHQEERLDSTQVGEFLGDNDKFNKEVMYAYVDQHDFSGKDFVSALRMFLEGFRLPGEAQKIDRLMEKFAARYLECNQGQTLFASADTAYVLAYSIIMLTTDLHSPQVKNKMTKEQYIKMNRGINDSKDLPEEYLSAIYNEIAGKKISMKETKELTIPTKSSKQNVASEKQRRLLYNLEMEQMAKTAKALMEAVSHVQAPFTSATHLEHVRPMFKLAWTPFLAAFSVGLQDCDDTEVASLCLEGIRCAIRIACIFSIQLERDAYVQALARFTLLTVSSGITEMKQKNIDTIKTLITVAHTDGNYLGNSWHEILKCISQLELAQLIGTGVKPRYISGTVRGREGSLTGTKDQAPDEFVGLGLVGGNVDWKQIASIQESIGETSSQSVVVAVDRIFTGSTRLDGNAIVDFVRWLCAVSMDELLSTTHPRMFSLQKIVEISYYNMGRIRLQWSRIWEVIGDHFNKVGCNPNEDVAIFAVDSLRQLSMKFLEKGELANFRFQKDFLRPFEHIMKRNRSPTIRDMVVRCIAQMVNSQAANIRSGWKNIFSVFHLAASDQDESIVELAFQTTGHIVTLVFEKHFPATIDSFQDAVKCLSEFACNAAFPDTSMEAIRLIRHCAKYVSDRPQAFKEYTSDDMNVAPEDRVWVRGWFPILFELSCIINRCKLDVRTRGLTVMFEIMKTYGHTYEKHWWQDLFRIVFRIFDNMKLPEQQTEKAEWMTTTCNHALYAICDVFTQYLEVLSDVLLDDIFAQLYWCVQQDNEQLARSGTNCLENVVILNGEKFTLEIWDKTCNCTLDIFKTTIPHALLTWRPNSGETAPPPPSPVSEKPLDTISQKSVDIHDSIQPRSVDNRPQAPLVSASAVNEEVSKIKSTAKFPEQKLFAALLIKCVVQLELIQTIDNIVFFPATSKKEDAENLAAAQRDAVDFDVRVDTQDQGMYRFLTSQQLFKLLDCLLESHRFAKAFNSNNEQRTALWKAGFKGKSKPNLLKQETSSLACGLRILFRMYMDESRVSAWEEVQQRLLNVCSEALSYFLTLTSESHREAWTNLLLLFLTKVLKISDNRFKAHASFYYPLLCEIMQFDLIPELRAVLRRFFLRIGVVFQISQPPEQELGINKQ

% of total input bound to the beads: 18.5 % of total input
B2: BIG2 (natural protein, human (endogenous in HeLa), UniProt Q9Y6D5 1-1785, looked up)
chain: MQESQTKSMFVSRALEKILADKEVKRPQHSQLRRACQVALDEIKAEIEKQRLGTAAPPKANFIEADKYFLPFELACQSKSPRVVSTSLDCLQKLIAYGHITGNAPDSGAPGKRLIDRIVETICSCFQGPQTDEGVQLQIIKALLTAVTSPHIEIHEGTILQTVRTCYNIYLASKNLINQTTAKATLTQMLNVIFTRMENQVLQEARELEKPIQSKPQSPVIQAAAVSPKFVRLKHSQAQSKPTTPEKTDLTNGEHARSDSGKVSTENGDAPRERGSSLSGTDDGAQEVVKDILEDVVTSAIKEAAEKHGLTEPERVLGELECQECAIPPGVDENSQTNGIADDRQSLSSADNLESDAQGHQVAARFSHVLQKDAFLVFRSLCKLSMKPLGEGPPDPKSHELRSKVVSLQLLLSVLQNAGPVFRTHEMFINAIKQYLCVALSKNGVSSVPDVFELSLAIFLTLLSNFKMHLKMQIEVFFKEIFLNILETSTSSFEHRWMVIQTLTRICADAQCVVDIYVNYDCDLNAANIFERLVNDLSKIAQGRSGHELGMTPLQELSLRKKGLECLVSILKCMVEWSKDLYVNPNHQTSLGQERLTDQEIGDGKGLDMARRCSVTSMESTVSSGTQTTVQDDPEQFEVIKQQKEIIEHGIELFNKKPKRGIQFLQEQGMLGTSVEDIAQFLHQEERLDSTQVGDFLGDSARFNKEVMYAYVDQLDFCEKEFVSALRTFLEGFRLPGEAQKIDRLMEKFAARYIECNQGQTLFASADTAYVLAYSIIMLTTDLHSPQVKNKMTKEQYIKMNRGINDSKDLPEEYLSSIYEEIEGKKIAMKETKELTIATKSTKQNVASEKQRRLLYNLEMEQMAKTAKALMEAVSHAKAPFTSATHLDHVRPMFKLVWTPLLAAYSIGLQNCDDTEVASLCLEGIRCAIRIACIFGMQLERDAYVQALARFSLLTASSSITEMKQKNIDTIKTLITVAHTDGNYLGNSWHEILKCISQLELAQLIGTGVKTRYLSGSGREREGSLKGHTLAGEEFMGLGLGNLVSGGVDKRQMASFQESVGETSSQSVVVAVDRIFTGSTRLDGNAIVDFVRWLCAVSMDELASPHHPRMFSLQKIVEISYYNMNRIRLQWSRIWHVIGDHFNKVGCNPNEDVAIFAVDSLRQLSMKFLEKGELANFRFQKDFLRPFEHIMKKNRSPTIRDMAIRCIAQMVNSQAANIRSGWKNIFAVFHQAASDHDGNIVELAFQTTCHIVTTIFQHHFPAAIDSFQDAVKCLSEFACNAAFPDTSMEAIRLIRFCGKYVSERPRVLQEYTSDDMNVAPGDRVWVRGWFPILFELSCIINRCKLDVRTRGLTVMFEIMKSYGHTFEKHWWQDLFRIVFRIFDNMKLPEQLSEKSEWMTTTCNHALYAICDVFTQFYEALNEVLLSDVFAQLQWCVKQDNEQLARSGTNCLENLVISNGEKFSPEVWDETCNCMLDIFKTTIPHVLLTWRPVGMEEDSSEKHLDVDLDRQSLSSIDKNPSERGQSQLSNPTDDSWKGRPYANQKLFASLLIKCVVQLELIQTIDNIVFYPATSKKEDAEHMVAAQQDTLDADIHIETEDQGMYKYMSSQHLFKLLDCLQESHSFSKAFNSNYEQRTVLWRAGFKGKSKPNLLKQETSSLACCLRILFRMYVDENRRDSWEEIQQRLLTVCSEALAYFITVNSESHREAWTSLLLLLLTKTLKINDEKFKAHASMYYPYLCEIMQFDLIPELRAVLRKFFLRIGVVYKIWIPEEPSQVPAALSPVW
